{"source": "the Human Domainome abundance scans (Beltran et al. 2025)", "parents": {"B1": {"name": "Chromodomain-helicase-DNA-binding protein 4, residues 365 to 417; numbered along this chain, Q14839 (parent)", "chain": "YETDHQDYCEVCQQGGEIILCDTCPRAYHMVCLDPDMEKAPEGKWSCPHCEKE"}}, "note": "± gives the uncertainty stated by the source."}
{"variants_of": "B1", "assay": "abundance fitness (aPCA) (normalised: wild type 0, dead -1); higher = more abundant; growth selection in yeast, the domain comes from the species named", "conditions": "Homo sapiens"}
{"variant": "E53R", "abundance fitness": "-0.04 ± 0.15"}
{"variant": "E53N", "abundance fitness": "-0.57 ± 0.38"}
{"variant": "E53D", "abundance fitness": "-0.551 ± 0.45"}
{"variant": "E53H", "abundance fitness": "-0.378 ± 0.33"}
{"variant": "E53S", "abundance fitness": "-0.023 ± 0.16"}
{"variant": "E53W", "abundance fitness": "0.113 ± 0.22"}
{"variant": "E53I", "abundance fitness": "-0.335 ± 0.39"}
{"variant": "E53V", "abundance fitness": "-0.356 ± 0.19"}
{"variant": "E53C", "abundance fitness": "-0.263 ± 0.25"}
{"variant": "E53L", "abundance fitness": "-0.133 ± 0.32"}
{"variant": "E53G", "abundance fitness": "-0.252 ± 0.13"}
{"variant": "E53A", "abundance fitness": "-0.207 ± 0.16"}
{"variant": "E53Y", "abundance fitness": "-0.323 ± 0.39"}
{"variant": "E53T", "abundance fitness": "-0.717 ± 0.41"}
{"variant": "C47T", "abundance fitness": "-0.43 ± 0.15"}
{"variant": "C47M", "abundance fitness": "-0.882 ± 0.17"}
{"variant": "C47Q", "abundance fitness": "-0.833 ± 0.21"}
{"variant": "C47P", "abundance fitness": "-0.657 ± 0.17"}
{"variant": "C47Y", "abundance fitness": "-0.811 ± 0.22"}
{"variant": "C47W", "abundance fitness": "-1.09 ± 0.16"}
{"variant": "C47N", "abundance fitness": "-0.5 ± 0.27"}
{"variant": "C47S", "abundance fitness": "-0.99 ± 0.14"}
{"variant": "C47L", "abundance fitness": "-0.75 ± 0.14"}
{"variant": "C47R", "abundance fitness": "-0.848 ± 0.11"}
{"variant": "C47V", "abundance fitness": "-1.11 ± 0.16"}
{"variant": "C50W", "abundance fitness": "-0.619 ± 0.12"}
{"variant": "C50E", "abundance fitness": "-0.366 ± 0.15"}
{"variant": "C50D", "abundance fitness": "-0.17 ± 0.16"}
{"variant": "C50T", "abundance fitness": "-0.624 ± 0.2"}
{"variant": "C50A", "abundance fitness": "-0.271 ± 0.13"}
{"variant": "C50L", "abundance fitness": "-0.517 ± 0.14"}
{"variant": "C50Q", "abundance fitness": "-0.767 ± 0.24"}
{"variant": "C50I", "abundance fitness": "-0.526 ± 0.28"}
{"variant": "C50Y", "abundance fitness": "-0.679 ± 0.15"}
{"variant": "C50S", "abundance fitness": "-0.222 ± 0.11"}
{"variant": "C50N", "abundance fitness": "-0.313 ± 0.29"}
{"variant": "C50R", "abundance fitness": "-0.555 ± 0.098"}
{"variant": "C50K", "abundance fitness": "-0.344 ± 0.17"}
{"variant": "C50M", "abundance fitness": "-0.819 ± 0.22"}
{"variant": "C50F", "abundance fitness": "-0.567 ± 0.19"}
{"variant": "P48E", "abundance fitness": "-0.151 ± 0.12"}
{"variant": "P48A", "abundance fitness": "-0.002 ± 0.11"}
{"variant": "P48R", "abundance fitness": "0.063 ± 0.1"}
{"variant": "P48H", "abundance fitness": "-0.057 ± 0.19"}
{"variant": "P48T", "abundance fitness": "-0.132 ± 0.12"}
{"variant": "P48Q", "abundance fitness": "-0.133 ± 0.15"}
{"variant": "P48D", "abundance fitness": "-0.16 ± 0.19"}
{"variant": "P48F", "abundance fitness": "-0.165 ± 0.22"}
{"variant": "P48K", "abundance fitness": "-0.29 ± 0.18"}
{"variant": "P48I", "abundance fitness": "-0.308 ± 0.27"}
{"variant": "P48V", "abundance fitness": "-0.04 ± 0.11"}
{"variant": "P48Y", "abundance fitness": "-0.101 ± 0.16"}
{"variant": "P48W", "abundance fitness": "-0.622 ± 0.14"}
{"variant": "P48L", "abundance fitness": "-0.126 ± 0.1"}
{"variant": "P48G", "abundance fitness": "-0.068 ± 0.098"}
{"variant": "P48C", "abundance fitness": "-0.001 ± 0.19"}
{"variant": "P48M", "abundance fitness": "0.07 ± 0.12"}
{"variant": "P48N", "abundance fitness": "-0.678 ± 0.3"}
{"variant": "P48S", "abundance fitness": "0.058 ± 0.1"}
{"variant": "K52M", "abundance fitness": "-0.376 ± 0.23"}
{"variant": "K52H", "abundance fitness": "0.286 ± 0.23"}
{"variant": "K52G", "abundance fitness": "-0.204 ± 0.12"}
{"variant": "K52V", "abundance fitness": "-0.176 ± 0.099"}
{"variant": "K52I", "abundance fitness": "-0.586 ± 0.21"}
{"variant": "K52Q", "abundance fitness": "-0.134 ± 0.18"}
{"variant": "K52S", "abundance fitness": "0.161 ± 0.14"}
{"variant": "K52D", "abundance fitness": "-0.39 ± 0.23"}
{"variant": "K52P", "abundance fitness": "-0.072 ± 0.16"}
{"variant": "K52A", "abundance fitness": "-0.233 ± 0.12"}
{"variant": "K52C", "abundance fitness": "-0.105 ± 0.16"}
{"variant": "K52E", "abundance fitness": "0.136 ± 0.16"}
{"variant": "K52R", "abundance fitness": "-0.106 ± 0.11"}
{"variant": "K52L", "abundance fitness": "-0.088 ± 0.11"}
{"variant": "K52N", "abundance fitness": "-0.007 ± 0.21"}
{"variant": "K52T", "abundance fitness": "0.06 ± 0.16"}
{"variant": "K52W", "abundance fitness": "-0.346 ± 0.14"}
{"variant": "H49G", "abundance fitness": "-0.086 ± 0.1"}
{"variant": "H49S", "abundance fitness": "-0.202 ± 0.11"}
{"variant": "H49M", "abundance fitness": "-0.354 ± 0.16"}
{"variant": "H49F", "abundance fitness": "-0.068 ± 0.19"}
{"variant": "H49Y", "abundance fitness": "-0.169 ± 0.18"}
{"variant": "H49W", "abundance fitness": "-0.175 ± 0.15"}
